Assay results: paper PMC10792529 (Proteins, 2023)

Target: wild-type Ralstonia solanacearum Isocyanide Hydratase (Ralstonia solanacearum)
Experiment: crystal structure

wild-type Ralstonia solanacearum Isocyanide Hydratase (enzyme)
stoichiometry N: 2
